This note sets out measurements from patent publication EP4624492A1 (Shanghai Hongcheng Biopharmaceutical Co., Ltd., dated 2025).

Sequences and labels used below:
B1: 559E1B10_hzH2L1_hIgG1 (antibody)
heavy: not shown
light: EIVLTQSPATLSLSPGERATLSCRASQSISDYLHWYQQKPGQAPRLLLKYVSQSISGIPARFSGSGSGTDFTLTISSLEPEDFAVYYCQNGHSFPLTFGGGTKVEIKRTVAAPSVFIFPPSDEQLKSGTASVVCLLNNFYPREAKVQWKVDNALQSGNSQESVTEQDSKDSTYSLSSTLTLSKADYEKHKVYACEVTHQGLSSPVTKSFNRGEC
notes: Humanized, hIgG1/K
B2: 559E1B10_hzH3L0_hIgG1 (antibody, V domains shown)
VH: KVQLVQSGAEVKKPGASVKVSCKASGYTFTDYYVNWVRQAPGQGLEWIGVINPHNGDTRYNQKFKGKATLTVDKSTSTAYMELSSLRSEDTAVYYCASWLRRGYYFDSWGQGTTVTVSS
VL: EIVLTQSPATLSLSPGERATLSCRASQSISDYLHWYQQKPGQAPRLLIYYVSQSISGIPARFSGSGSGTDFTLTISSLEPEDFAVYYCQNGHSFPLTFGGGTKVEIKR
notes: Humanized, hIgG1/K
B3: 559E1B10_hzH0L2_hIgG1 (antibody)
heavy: not shown
light: B1 light with E1D, L4M
notes: Humanized, hIgG1/K
B4: 559E1B10_hzH3L2_hIgG1 (antibody)
heavy: not shown
light: B1 light with E1D, L4M
notes: Humanized, hIgG1/K
B5: 559E1B10_hzH2L2_hIgG1 (antibody)
heavy: not shown
light: B1 light with E1D, L4M
notes: Humanized, hIgG1/K
B6: 559E1B10_hzH3L1_hIgG1 (antibody)
heavy: not shown
light: B1 light
notes: Humanized, hIgG1/K
B7: 559E1B10_hzH1L2_hIgG1 (antibody)
heavy: not shown
light: B1 light with E1D, L4M
notes: Humanized, hIgG1/K
B8: 559E1B10_hzH0L1_hIgG1 (antibody)
heavy: not shown
light: B1 light
notes: Humanized, hIgG1/K
B9: 563E10E12_hzH1L1_DE (antibody, human IgG1, kappa)
heavy: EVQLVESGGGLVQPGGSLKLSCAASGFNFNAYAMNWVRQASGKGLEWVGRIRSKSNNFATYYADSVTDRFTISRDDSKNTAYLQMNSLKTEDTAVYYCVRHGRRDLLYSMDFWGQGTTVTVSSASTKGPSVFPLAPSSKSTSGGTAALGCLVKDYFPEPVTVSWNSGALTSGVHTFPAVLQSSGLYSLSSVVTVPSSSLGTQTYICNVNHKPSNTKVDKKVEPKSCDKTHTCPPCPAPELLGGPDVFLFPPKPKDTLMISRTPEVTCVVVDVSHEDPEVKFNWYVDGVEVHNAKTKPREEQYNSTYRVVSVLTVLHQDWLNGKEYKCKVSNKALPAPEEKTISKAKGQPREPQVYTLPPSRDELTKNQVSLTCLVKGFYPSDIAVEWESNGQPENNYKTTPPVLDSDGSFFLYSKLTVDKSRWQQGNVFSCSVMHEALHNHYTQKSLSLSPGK
light: DVVMTQSPLSLPVTPGEPASISCRSSKSLLHSNGITYLFWYLQKPGQSPQLLIYQMSNLASGVPDRFSGSGSGTDFTLKISRVEAEDVGVYYCAQSLELPLTFGGGTKVEIKRTVAAPSVFIFPPSDEQLKSGTASVVCLLNNFYPREAKVQWKVDNALQSGNSQESVTEQDSKDSTYSLSSTLTLSKADYEKHKVYACEVTHQGLSSPVTKSFNRGEC

Numbering of substitutions follows the chain as printed.

The target in the first assay is T1, human CCR8 (human, UniProt P51685 1-355).
T1 construct: whole, on cells; the cell line is named under assay; also called hCCR8
T1 sequence (P51685 whole entry): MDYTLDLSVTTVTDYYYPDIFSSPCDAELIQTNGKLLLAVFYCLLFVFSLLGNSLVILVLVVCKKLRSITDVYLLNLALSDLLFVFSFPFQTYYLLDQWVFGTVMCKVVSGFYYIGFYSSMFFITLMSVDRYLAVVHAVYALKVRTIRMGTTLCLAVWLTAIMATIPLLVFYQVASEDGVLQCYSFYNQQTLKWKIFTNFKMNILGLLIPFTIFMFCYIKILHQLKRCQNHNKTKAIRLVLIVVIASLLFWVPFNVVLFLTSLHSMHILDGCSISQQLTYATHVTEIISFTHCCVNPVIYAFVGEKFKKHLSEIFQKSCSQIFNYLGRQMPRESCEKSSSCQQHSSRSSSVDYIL
The assay can be described thus: flow cytometry on 293F-hCCR8 cells.
In the case of B1, the EC50 came out at 0.141 µg/mL.
Still for that read-out and setting: the same measure for B2: 0.13 µg/mL; for B3: 0.0979 µg/mL.
Turning to B4, the response was half-maximal at 0.133 µg/mL (EC50).
Still for that read-out and setting: in the case of B5 it was 0.204 µg/mL; in that of B6, 0.176 µg/mL.
With B7, the EC50 was 0.15 µg/mL.
In turn, B8 yielded an EC50 of 0.135 µg/mL.

For the next assay, the target named is T1, human CCR8. The assay can be described thus: cell-based or functional assay.
Turning to B9, the “EC50 of activation of Jurkat-human FcγRIIIa(158V)-NFAT with 293F-hCCR8 target cells” value (from here on “EC50 … with 293F-hCCR8 target cells”) came out at 0.0006 µg/mL.

The target in a further assay is T1, human CCR8. The assay can be described thus: cell-based or functional assay. The source holds these as a separate data set.
Consider B1, for which the “IC50 of blockade of CCL1-induced β-arrestin recruitment” value was 46.5 µg/mL.
On the same count and under the same terms, in the case of B3 it was 11.2 µg/mL; in that of B4, 71.2 µg/mL.
For B5, the “IC50 of blockade of CCL1-induced β-arrestin recruitment” value is 6.69 µg/mL.
Turning to B6, the “IC50 of blockade of CCL1-induced β-arrestin recruitment” value turned out to be 14.8 µg/mL.
Consider B7, for which the “IC50 of blockade of CCL1-induced β-arrestin recruitment” value was 7.33 µg/mL.
The same measure, in the same setting: in the case of B8 it was 118 µg/mL.

In another assay the target is T1, human CCR8. The assay can be described thus: cell-based or functional assay. The source holds these as a separate data set.
Turning to B1, the “EC50 … with 293F-hCCR8 target cells” value stood at 0.0292 µg/mL.
The same measure, in the same setting: in the case of B2 it was 0.0985 µg/mL; in that of B3, 0.0286 µg/mL; in that of B4, 0.0344 µg/mL.
As to B5, the “EC50 … with 293F-hCCR8 target cells” value came to 0.033 µg/mL.
The same measure, in the same setting: the same measure for B6: 0.028 µg/mL.
On the same count and under the same terms, the same measure for B7: 0.0325 µg/mL; for B8: 0.0305 µg/mL.

Another assay has as its target T1, human CCR8. In words: flow cytometry, competition with 10 nM AF647-human CCL1 on 293F-hCCR8 cells. Background: A flow cytometer gives signals particle by particle.
On to B1, for which the IC50 stood at 0.102 µg/mL.
Turning to B2, the IC50 is 0.443 µg/mL.
As for B3, the IC50 was found to be 0.0413 µg/mL.
With B4, the IC50 is 0.121 µg/mL.
On the same count and under the same terms, the same measure for B5: 0.14 µg/mL; for B6: 0.088 µg/mL; for B7: 0.0769 µg/mL.
Take B8: the IC50 is 0.0438 µg/mL.

A word on the EC50: it is the midpoint of the concentration-response curve. Lower therefore signals greater potency. What is called IC50 is the point on the concentration scale where inhibition reaches its midpoint.
